From patent US11015206B2, “Compositions and methods comprising sequences having hydroxyphenylpyruvate dioxygenase (HPPD) activity” (PIONEER HI-BRED INTERNATIONAL, INC., priority 2014, dated 2021)

Legend:
Format in all cases: biochemical, Z. mays
[1] = system: 4-hydroxyphenylpyruvate dioxygenase (HPPD); assay: HPPD activity coupled assay with HGD; substrate saturation kinetic parameters (kcat, KM)
Summary of the method: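 Coupled continuous assay: His-tagged HPPD (5 to 240 nM, E. coli-expressed, Ni-NTA-purified) with 50 nM P. aeruginosa HGD in 25 mM Hepes pH 7, 2 mM ascorbate, 10 μM FeSO4; maleylacetoacetate followed at 320 nm. KM and Vmax from Lineweaver-Burke fits over 3.33–100 μM HPP.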

[2] = system: 4-hydroxyphenylpyruvate dioxygenase (HPPD); assay: OFF rate ratio: release of inhibitor from pre-formed enzyme-inhibitor complex; settings: for OFF ratio (parameters with tembotrione): Table 5; for Insensitivity, isoxaflutole (DKN), Rate ratio OFF: inhibitor diketonitrile form of isoxaflutole (DKN); for Insensitivity, mesotrione, Rate ratio OFF: inhibitor mesotrione; for Insensitivity, sulcotrione, Rate ratio OFF: inhibitor sulcotrione; for Insensitivity, tembotrione, Rate ratio OFF: inhibitor tembotrione; for Insensitivity, topramezone, Rate ratio OFF: inhibitor topramezone
Summary of the method: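 Inhibitor release from pre-formed complex (enzyme 7.2 μM, inhibitor 8 μM, 1 h RT) tracked as accelerating HPPD activity at 320 nm over 12 min, coupled via 50 nM HGD with 100 μM HPP at pH 7. OFF rate ratio: steady-state velocity relative to uninhibited initial velocity.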

[3] = system: 4-hydroxyphenylpyruvate dioxygenase (HPPD); assay: Insensitivity parameter (ON × OFF) and trait fitness (ON × OFF × kcat/KM or × kcat); design: key to ON × OFF / Insensitivity, mesotrione, ON × OFF / Insensitivity, tembotrione, ON × OFF / Insensitivity, topramezone, ON × OFF / Insensitivity, sulcotrione, ON × OFF / Insensitivity, isoxaflutole (DKN), ON × OFF: insensitivity = ON rate ratio × OFF rate ratio (surrogate for KD); settings: for ON × OFF × kcat, Value / ON × OFF × kcat, Fold vs wt / ON × OFF, fold vs wt / ON × OFF (parameters with tembotrione): Table 5; for ON × OFF × kcat, Fold vs wt / ON × OFF, fold vs wt: fold vs maize wild type HPPD; for ON × OFF (parameters with tembotrione): insensitivity parameter; for Insensitivity, isoxaflutole (DKN), ON × OFF / Insensitivity, isoxaflutole (DKN), Trait fitness: inhibitor diketonitrile form of isoxaflutole (DKN); for Insensitivity, mesotrione, ON × OFF / Insensitivity, mesotrione, Trait Fitness: inhibitor mesotrione; for Insensitivity, sulcotrione, ON × OFF / Insensitivity, sulcotrione, Trait fitness: inhibitor sulcotrione; for Insensitivity, tembotrione, ON × OFF / Insensitivity, tembotrione, Trait fitness: inhibitor tembotrione; for Insensitivity, topramezone, ON × OFF / Insensitivity, topramezone, Trait Fitness: inhibitor topramezone
Summary of the method: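 Trait fitness combines catalysis and insensitivity as kcat/KM × ON rate ratio × OFF rate ratio. The insensitivity parameter is the product of ON and OFF rate ratios, used in place of KD because the ON rate ratio is inverse.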

[4] = Table 2, E. coli purified proteins
[5] = Table 6, single substitutions in SEQ ID NO:2
[6] = substrate saturation kinetic analysis
[7] = Table 7, tembotrione, combinatorial variants
[8] = DKN (diketonitrile form of isoxaflutole)

B1: R7-9070: shuffled maize HPPD, Round 7, variant 9070 (SEQ ID NO:2); backbone for saturation mutagenesis (protein)
chain: MGPTPTATAAGAAVAAASAAEQAAFRLVGHRNFVRFNPRSDRFQTLAFHHVELWCADAASAAGRFSFALGVPLAARSDLSTGNSAHASLLLRSGSLSLLFTAPYAHGADAATAALPSFSAAAARRFAADHGLAVRAVALRVADAEDAFRASVAAGARPAFGPVDLGRGFRLAEVELYGDVVLRYVSYPDGAAGEPFLPGFEGVASPGAADYGLSRFDHIVGNVPELAPAAAYMAGFTGFHEFAEFTTEDVGTTESGLNSMALANNSENVLLPLNEPVHGTKRRSQIQTFLDHHGGPGVQHIALASDDVLRTLREMRARSAMGGFEFLPPPLSDYYDGVRRCAGDVLTEAQINECQELGVMVDRDDQGVLLQIFTKPVGDRPTFFLEIIQRIGCMEKDEKGQEYQKGGCGGFGKGNFGQLFKSIEDYEKSLEAKQAAAAATAQGS
modifications: Zea mays variant form created by artificial means.
notes: backbone for saturation mutagenesis
Km [1, 4]: 2900 nM | kcat [1, 4]: 88.9 min⁻¹ | Km ([1]; Table 6): 2350 nM | kcat [1, 5]: 55.1 min⁻¹ | Km [1, 6]: 2910 nM | kcat [1, 6]: 88.9 min⁻¹ | OFF ratio (parameters with tembotrione) ([2]; tembotrione): 0.21 | OFF rate ratio [2, 7]: 0.116 | Insensitivity, isoxaflutole (DKN), Rate ratio OFF [2]: 0.20 | Insensitivity, mesotrione, Rate ratio OFF [2]: 0.89 | Insensitivity, sulcotrione, Rate ratio OFF [2]: 0.71 | Insensitivity, tembotrione, Rate ratio OFF [2]: 0.22 | Insensitivity, topramezone, Rate ratio OFF [2]: 0.25 | OFF rate ratio ([2]; mesotrione): 0.83 | Insensitivity parameter, ON × OFF [3, 8]: 0.24 | ON × OFF ([3]; Megatable 3, shuffled variants): 0.086 | ON × OFF × kcat ([3]; Megatable 3, shuffled variants): 3.45 | Insensitivity parameter, ON × OFF ([3]; Mesotrione, Table 6): 0.45 | Insensitivity parameter, ON × OFF ([3]; Sulcotrione): 0.56 | ON × OFF × kcat, Value ([3]; tembotrione): 5.25 | ON × OFF × kcat, Fold vs wt ([3]; tembotrione): 4.90 | ON × OFF, fold vs wt ([3]; tembotrione): 30.0 | ON × OFF (parameters with tembotrione) ([3]; tembotrione): 0.15 | ON × OFF [3, 7]: 0.086 | ON × OFF × kcat [3, 7]: 3.45 | Insensitivity parameter, ON × OFF ([3]; Tembotrione): 0.19 | Insensitivity parameter, ON × OFF ([3]; Topramezon): 0.26 | Insensitivity, isoxaflutole (DKN), ON × OFF [3]: 0.11 | Insensitivity, isoxaflutole (DKN), Trait fitness [3]: 3.30 | Insensitivity, mesotrione, ON × OFF [3]: 0.59 | Insensitivity, mesotrione, Trait Fitness [3]: 18.1 | Insensitivity, sulcotrione, ON × OFF [3]: 0.38 | Insensitivity, sulcotrione, Trait fitness [3]: 11.8 | Insensitivity, tembotrione, ON × OFF [3]: 0.17 | Insensitivity, tembotrione, Trait fitness [3]: 5.36 | Insensitivity, topramezone, ON × OFF [3]: 0.13 | Insensitivity, topramezone, Trait Fitness [3]: 3.99 | Fitness Fold vs Zm wt ([3]; mesotrione): 7.9 | Insensitivity parameter, ON × OFF ([3]; mesotrione, Table 2): 0.56 | Insensitivity ON × OFF, Fold vs wt ([3]; mesotrione, vs maize wild type): 9.11

B2: P056028-G-01 (protein)
chain: MGPTPTATAAGAAVAAASAAEQAAFRLVGHRNFVRFNPRSDRFQTLAFHHVELWCADAASAAGRFSFALGVPLAARSDLSTGNSAHASLLLRSGSLSLLFTAPYAHGADAATAALPSFSAAAARRFAADHGLAVRAVALRVADAEDAFRASVAAGARPAFGPVDLGRGFRLAEVELYGDVVLRYVSYPDGAAGEPFLPGFEGVASPGAADLGLNRFDHIVGNVPELAPAAAYMAGFTGFHEFAEFTTEDVGTTESGLNSMALANNSENVLLPLNEPVHGTKRRSQIQTFLDHHGGPGVQHIALASDDVLRTLREMRARSAMGGFEFLPPPLSDYYDGVRKCAGDVLTEAQINECQELGVMVDRDDEGVLLQIFTKPVGDRPTFFLEIIQRIGCMEKDEKGQEYQKGGCGGFGKGNFGQLFKSIEDYEKSLEKKRAAAAATAQGS
modifications: Zea mays variant form created by artificial means.
Km [1, 6]: 2060 nM | kcat [1, 6]: 41.4 min⁻¹ | OFF rate ratio [2, 7]: 0.320 | Insensitivity, isoxaflutole (DKN), Rate ratio OFF [2]: 0.42 | Insensitivity, mesotrione, Rate ratio OFF [2]: 1.00 | Insensitivity, sulcotrione, Rate ratio OFF [2]: 1.14 | Insensitivity, tembotrione, Rate ratio OFF [2]: 0.47 | Insensitivity, topramezone, Rate ratio OFF [2]: 0.57 | ON × OFF ([3]; Megatable 3, shuffled variants): 0.238 | ON × OFF × kcat ([3]; Megatable 3, shuffled variants): 7.65 | ON × OFF [3, 7]: 0.238 | ON × OFF × kcat [3, 7]: 7.65 | Insensitivity, isoxaflutole (DKN), ON × OFF [3]: 0.32 | Insensitivity, isoxaflutole (DKN), Trait fitness [3]: 6.55 | Insensitivity, mesotrione, ON × OFF [3]: 0.71 | Insensitivity, mesotrione, Trait Fitness [3]: 14.6 | Insensitivity, sulcotrione, ON × OFF [3]: 0.89 | Insensitivity, sulcotrione, Trait fitness [3]: 18.2 | Insensitivity, tembotrione, ON × OFF [3]: 0.36 | Insensitivity, tembotrione, Trait fitness [3]: 7.32 | Insensitivity, topramezone, ON × OFF [3]: 0.46 | Insensitivity, topramezone, Trait Fitness [3]: 9.31

B3: Z. mays wt: maize wild-type HPPD, SEQ ID NO:1 (glycine for proline at position 2) (protein)
chain: MGPTPTAAAAGAAVAAASAAEQAAFRLVGHRNFVRFNPRSDRFHTLAFHHVELWCADAASAAGRFSFGLGAPLAARSDLSTGNSAHASLLLRSGSLSFLFTAPYAHGADAATAALPSFSAAAARRFAADHGLAVRAVALRVADAEDAFRASVAAGARPAFGPVDLGRGFRLAEVELYGDVVLRYVSYPDGAAGEPFLPGFEGVASPGAADYGLSRFDHIVGNVPELAPAAAYFAGFTGFHEFAEFTTEDVGTAESGLNSMVLANNSENVLLPLNEPVHGTKRRSQIQTFLDHHGGPGVQHMALASDDVLRTLREMQARSAMGGFEFMAPPTSDYYDGVRRRAGDVLTEAQIKECQELGVLVDRDDQGVLLQIFTKPVGDRPTLFLEIIQRIGCMEKDEKGQEYQKGGCGGFGKGNFSQLFKSIEDYEKSLEAKQAAAAAAAQGS
modifications: Zea mays
Km [1, 4]: 6400 nM | kcat [1, 4]: 219 min⁻¹ | Km ([1]; Table 6): 6400 nM | kcat [1, 5]: 219 min⁻¹ | Km [1, 6]: 6410 nM | kcat [1, 6]: 219 min⁻¹ | kcat ([1]; text b374): about 220 min^−1 | OFF ratio (parameters with tembotrione) ([2]; tembotrione): 0.03 | Insensitivity, isoxaflutole (DKN), Rate ratio OFF [2]: 0.01 | Insensitivity, mesotrione, Rate ratio OFF [2]: 0.31 | Insensitivity, sulcotrione, Rate ratio OFF [2]: 0.28 | Insensitivity, tembotrione, Rate ratio OFF [2]: 0.04 | Insensitivity, topramezone, Rate ratio OFF [2]: 0.045 | OFF rate ratio ([2]; mesotrione): 0.31 | time span to reach the steady state (dissociation from inhibitor) ([2]; mesotrione, enzyme 240 nM): 280 s | Insensitivity parameter, ON × OFF [3, 8]: 0.0096 | Insensitivity parameter, ON × OFF ([3]; Mesotrione, Table 6): 0.0437 | Insensitivity parameter, ON × OFF ([3]; Sulcotrione): 0.0872 | ON × OFF × kcat, Value ([3]; tembotrione): 1.07 | ON × OFF × kcat, Fold vs wt ([3]; tembotrione): 1.00 | ON × OFF, fold vs wt ([3]; tembotrione): 1.00 | ON × OFF (parameters with tembotrione) ([3]; tembotrione): 0.0051 | Insensitivity parameter, ON × OFF ([3]; Tembotrione): 0.0051 | Insensitivity parameter, ON × OFF ([3]; Topramezon): 0.0154 | Insensitivity, isoxaflutole (DKN), ON × OFF [3]: 0.0005 | Insensitivity, isoxaflutole (DKN), Trait fitness [3]: 0.015 | Insensitivity, mesotrione, ON × OFF [3]: 0.062 | Insensitivity, mesotrione, Trait Fitness [3]: 2.1 | Insensitivity, sulcotrione, ON × OFF [3]: 0.042 | Insensitivity, sulcotrione, Trait fitness [3]: 1.45 | Insensitivity, tembotrione, ON × OFF [3]: 0.007 | Insensitivity, tembotrione, Trait fitness [3]: 0.26 | Insensitivity, topramezone, ON × OFF [3]: 0.002 | Insensitivity, topramezone, Trait Fitness [3]: 0.077 | Fitness Fold vs Zm wt ([3]; mesotrione): 1 | fold less sensitive to mesotrione than soybean HPPD ([3]; mesotrione): 40 fold | Insensitivity parameter, ON × OFF ([3]; mesotrione, Table 2): 0.06
